Read-outs that look alike come from different tables or passages of the source.
How the values were obtained:
[1] = system: DNA demethylase (DNA dMTase) purified from A549 nuclear extract (Homo sapiens); settings: Km, 37 C, buffer L
[2] = system: DNA demethylase (DNA dMTase) purified from A549 nuclear extract (Homo sapiens); assay: inhibition; settings: 5mC at CpG; oligonucleotide sequence only as image; preparation of enzyme not stated

Question: For “SssI-methylated pBluescript SK(+) plasmid”, which activity ([1]; 5mC at all CpG, Vmax 40.42 pmol/h) is on record?
Answer: 3.3 nM

Question: For “double stranded CmG oligonucleotide inhibitor”, which Ki [2] is on record?
Answer: 50 nM

Question: With fully methylated poly[mdCpdG]n as the substance, how does the activity ([1]; 5mC at all C of CpG, Vmax 340 pmol/h) read?
Answer: 2.5 nM

Question: hemimethylated [dCpdG]n*[mdCpdG]n was tested. Which activity ([1]; 5mC on one strand, Vmax 402 pmol/h) did it give?
Answer: 6 nM
